From patent US20090285771A1

Target: growth hormone (GH) receptor (mouse) (UniProt P16882)
Test: cell-based or functional assay

GH receptor mRNA expression levels in the liver (quantitative RT-PCR, normalized to GAPDH, % of control), 60 minutes after 30 µg subcutaneous rGH in BALB/c mice (% of level prior to administration): 65 | IGF-1-BP3 mRNA expression levels in the liver (quantitative RT-PCR, normalized to GAPDH, % of control), 60 minutes after 30 µg subcutaneous rGH in BALB/c mice: 250 % increase
Substance: recombinant rat growth hormone (from UniProt P01244 27-216) (ligand)
